How the values were obtained:
Experiment in all cases: SPR, KD relative to WT C2;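 further: biacore SPR at 37 °C, anti-C2 mAbs captured on anti-human IgG chips with alanine or serine point mutants of C2 as analyte, KD from 1:1 fit compared with wild-type C2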
[1] = target: T1, human C2 E324A (human, UniProt P06681 21-752)
T1 sequence: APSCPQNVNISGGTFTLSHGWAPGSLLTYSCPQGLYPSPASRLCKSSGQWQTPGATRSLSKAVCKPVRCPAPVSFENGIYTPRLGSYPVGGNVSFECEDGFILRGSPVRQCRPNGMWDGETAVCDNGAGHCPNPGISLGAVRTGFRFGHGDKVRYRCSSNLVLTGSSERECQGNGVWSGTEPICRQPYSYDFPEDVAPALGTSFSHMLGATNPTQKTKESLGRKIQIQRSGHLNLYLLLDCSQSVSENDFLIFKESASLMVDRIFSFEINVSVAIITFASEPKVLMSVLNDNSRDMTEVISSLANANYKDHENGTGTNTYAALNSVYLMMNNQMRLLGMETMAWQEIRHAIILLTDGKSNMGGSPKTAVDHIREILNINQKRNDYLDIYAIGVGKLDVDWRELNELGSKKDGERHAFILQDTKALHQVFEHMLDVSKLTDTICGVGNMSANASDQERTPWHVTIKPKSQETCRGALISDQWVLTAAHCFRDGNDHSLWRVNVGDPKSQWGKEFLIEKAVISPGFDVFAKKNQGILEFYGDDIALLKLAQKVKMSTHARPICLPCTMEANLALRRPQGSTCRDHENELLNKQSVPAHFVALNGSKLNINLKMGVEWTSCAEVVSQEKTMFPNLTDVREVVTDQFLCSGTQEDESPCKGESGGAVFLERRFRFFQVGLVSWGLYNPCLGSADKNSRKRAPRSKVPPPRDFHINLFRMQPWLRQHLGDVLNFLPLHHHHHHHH

[2] = target: T2, human C2 V465A (human, UniProt P06681 21-752)
T2 sequence: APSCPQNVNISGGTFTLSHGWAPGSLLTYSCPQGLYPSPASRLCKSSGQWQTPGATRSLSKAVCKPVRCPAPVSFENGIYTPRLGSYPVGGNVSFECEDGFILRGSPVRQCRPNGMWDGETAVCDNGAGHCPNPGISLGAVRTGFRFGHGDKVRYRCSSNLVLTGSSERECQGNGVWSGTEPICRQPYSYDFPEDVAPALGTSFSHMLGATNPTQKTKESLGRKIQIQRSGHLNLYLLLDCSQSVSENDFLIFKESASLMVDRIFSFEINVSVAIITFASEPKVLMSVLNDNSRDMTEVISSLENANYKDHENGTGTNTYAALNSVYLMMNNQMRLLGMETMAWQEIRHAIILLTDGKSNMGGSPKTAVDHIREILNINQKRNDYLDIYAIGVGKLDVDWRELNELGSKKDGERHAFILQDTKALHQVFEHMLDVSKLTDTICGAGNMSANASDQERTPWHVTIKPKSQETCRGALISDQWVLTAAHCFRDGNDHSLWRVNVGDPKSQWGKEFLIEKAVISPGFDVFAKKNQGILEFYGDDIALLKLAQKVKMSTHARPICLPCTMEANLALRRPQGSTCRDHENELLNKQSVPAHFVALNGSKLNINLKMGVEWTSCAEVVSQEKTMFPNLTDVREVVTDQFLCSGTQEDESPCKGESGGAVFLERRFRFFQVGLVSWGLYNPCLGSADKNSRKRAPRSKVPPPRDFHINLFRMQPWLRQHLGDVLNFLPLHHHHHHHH

[3] = target: T3, human C2 D404A (human, UniProt P06681 21-752)
T3 sequence: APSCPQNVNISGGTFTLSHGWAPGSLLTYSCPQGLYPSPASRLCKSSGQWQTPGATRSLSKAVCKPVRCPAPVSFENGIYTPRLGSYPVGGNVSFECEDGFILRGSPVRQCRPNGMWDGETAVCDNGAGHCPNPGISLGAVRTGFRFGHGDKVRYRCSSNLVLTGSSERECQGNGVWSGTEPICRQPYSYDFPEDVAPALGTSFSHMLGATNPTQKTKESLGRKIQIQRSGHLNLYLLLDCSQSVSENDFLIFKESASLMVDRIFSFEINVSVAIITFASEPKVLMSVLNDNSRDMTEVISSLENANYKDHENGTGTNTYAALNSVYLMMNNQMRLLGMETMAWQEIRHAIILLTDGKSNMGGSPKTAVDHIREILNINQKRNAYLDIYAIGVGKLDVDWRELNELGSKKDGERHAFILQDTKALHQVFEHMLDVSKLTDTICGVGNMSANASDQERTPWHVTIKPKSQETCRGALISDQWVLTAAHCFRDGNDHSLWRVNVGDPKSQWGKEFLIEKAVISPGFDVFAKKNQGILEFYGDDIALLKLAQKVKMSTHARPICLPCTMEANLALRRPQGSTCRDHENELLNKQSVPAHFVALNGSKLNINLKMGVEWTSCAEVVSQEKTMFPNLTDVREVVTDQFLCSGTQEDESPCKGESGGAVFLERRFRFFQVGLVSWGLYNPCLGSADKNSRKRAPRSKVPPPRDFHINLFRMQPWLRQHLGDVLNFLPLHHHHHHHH

[4] = target: T4, human C2 K244A (human, UniProt P06681 21-752)
T4 sequence: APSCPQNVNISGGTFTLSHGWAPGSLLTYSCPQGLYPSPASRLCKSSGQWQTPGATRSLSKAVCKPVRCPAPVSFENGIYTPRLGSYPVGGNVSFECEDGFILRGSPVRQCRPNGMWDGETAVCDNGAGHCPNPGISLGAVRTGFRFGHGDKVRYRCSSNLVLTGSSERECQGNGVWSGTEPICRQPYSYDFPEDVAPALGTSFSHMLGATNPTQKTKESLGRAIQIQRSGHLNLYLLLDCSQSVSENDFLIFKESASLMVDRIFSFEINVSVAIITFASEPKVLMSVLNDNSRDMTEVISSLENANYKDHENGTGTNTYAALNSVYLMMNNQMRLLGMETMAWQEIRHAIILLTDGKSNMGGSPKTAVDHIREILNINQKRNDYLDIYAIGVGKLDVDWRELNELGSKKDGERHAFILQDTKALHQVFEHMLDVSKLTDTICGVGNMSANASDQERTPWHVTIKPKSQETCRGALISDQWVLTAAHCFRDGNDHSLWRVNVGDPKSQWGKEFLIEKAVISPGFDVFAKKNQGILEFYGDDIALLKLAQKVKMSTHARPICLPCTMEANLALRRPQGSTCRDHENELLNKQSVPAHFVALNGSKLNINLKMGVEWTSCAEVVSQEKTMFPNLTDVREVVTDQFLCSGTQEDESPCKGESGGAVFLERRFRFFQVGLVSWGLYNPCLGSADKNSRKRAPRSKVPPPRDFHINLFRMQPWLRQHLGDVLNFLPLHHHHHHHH

B1: RF16-242 (antibody, human IgG4 S228P, lambda, V domains shown)
VH: EVQLLQSGAEVKKPGESLKISCKGSGYSFTSYWIGWVRQMPGKGLEWMGIIYPGDSDTRYSPSFQGQVTISADKSISTAYLQWSSLKASDTAMYYCARRGHYGDYFDYWGQGTLVTVSS
VL: SYELTQPPSVSVSPGQTARITCSGDALPKKYAYWYHQKSGQAPVLVIYEDRRRPSEIPERFSGSSSGTMATLTITGAQVEDEGVYFCYSRDRAGNQRVFGGGTQLTVLG
notes: pH-dependent anti-C2 antibody from a phage display library
Fold diff [1]: 2 fold | Fold diff [2]: 2 fold | Fold diff [3]: 2 fold | Fold diff [4]: 4 fold
